The text below walks through data of article PMC5090862, “Coenzyme Engineering of a Hyperthermophilic 6-Phosphogluconate Dehydrogenase from NADP^+ to NAD^+ with Its Application to Biobatteries” (Scientific Reports, 2016).

Sequences and labels used below:
B1: Tm6PGDH (6-phosphogluconate dehydrogenase from Thermotoga maritima) (Thermotoga maritima MSB8) (protein)
chain: MKSHIGLIGLAVMGQNLALNIARKGYKVSVYNRTAQRTEEFVKNRVTNEEIEPHYDIESFVKSLERPRKIILMVKAGKPVDDTISQLLPHLEPGDLIIDGGNSHYMDTERRFKELSEKGILFLGMGVSGGEYGALHGPSLMPGGSREAYNLVEEILLEIAAKTEDGPCCTYVGERSAGHFVKMVHNGIEYAIMQAIAEVYHIMRDVLSLSSEEMSSIFEEWNRGELSSFLVEITYKILRKKDEETGKPMVDVILDKAEQKGTGKWTSQAALDLGIPTPSINLAVVERVISHFKDIRTRLSKLYNKRRSATQGSEEFLRDLRNSLFFAMFMAFSQGMWLIAEASKEFGYGVSLSEVLRIWKGGCIIRAKLIDTLRRYISNENAYLLENEEVMNLLKGKIDSLKNILKASIENEIPVPVLSSSYNYFMSLTEERLPANLIQAQRDFFGAHTFERVDREGVFHINWEEGEIG
notes: full length in pET20b, C-terminal His tag (LEHHHHHH from primer), E. coli BL21(DE3), Ni-NTA; primers encode N-terminus MKSHIGLI and C-terminus NWEEGEIG before the tag
B2: Tm6PGDH (6-phosphogluconate dehydrogenase from Thermotoga maritima) (Thermotoga maritima MSB8; N32E/R33I/T34I) (protein)
chain: B1 chain with N32E, R33I, T34I
notes: as for B1
B3: Tm6PGDH (6-phosphogluconate dehydrogenase from Thermotoga maritima) (Thermotoga maritima MSB8; N32D/R33I/T34I) (protein)
chain: B1 chain with N32D, R33I, T34I
notes: as for B1
B4: Tm6PGDH (6-phosphogluconate dehydrogenase from Thermotoga maritima) (Thermotoga maritima MSB8; N32D/R33L/T34S) (protein)
chain: B1 chain with N32D, R33L, T34S
notes: as for B1
B5: Tm6PGDH (6-phosphogluconate dehydrogenase from Thermotoga maritima) (Thermotoga maritima MSB8; N32D) (protein)
chain: B1 chain with N32D
notes: as for B1

Positions count from the first letter of the chain named. In names and notes the source's numbering stands.

T1 sequence (Q9WYR9 entry or part of it N32D/R33L/T34S): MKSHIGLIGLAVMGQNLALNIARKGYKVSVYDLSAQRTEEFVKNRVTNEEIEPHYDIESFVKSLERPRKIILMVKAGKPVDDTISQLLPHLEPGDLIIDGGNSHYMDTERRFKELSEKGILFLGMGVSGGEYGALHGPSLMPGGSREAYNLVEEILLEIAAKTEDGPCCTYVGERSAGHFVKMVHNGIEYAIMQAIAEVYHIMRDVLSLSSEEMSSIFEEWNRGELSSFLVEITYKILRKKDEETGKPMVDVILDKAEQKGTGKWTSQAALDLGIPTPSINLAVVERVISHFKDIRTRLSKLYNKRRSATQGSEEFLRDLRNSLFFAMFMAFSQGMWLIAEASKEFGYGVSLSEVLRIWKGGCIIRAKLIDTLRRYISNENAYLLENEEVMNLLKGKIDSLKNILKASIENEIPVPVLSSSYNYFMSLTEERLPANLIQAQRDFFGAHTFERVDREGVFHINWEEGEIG

Substrate in one data set: NC(=O)c1ccc[n+]([C@@H]2O[C@H](COP(=O)(O)OP(=O)(O)OC[C@H]3O[C@@H](n4cnc5c(N)ncnc54)[C@H](O)[C@@H]3O)[C@@H](O)[C@H]2O)c1
Nature of the data set: purified protein. The class given is biochemical, Thermotoga maritima. The following applies: 2 mM 6-phosphogluconate, 5 mM MgCl2, 0.5 mM MnCl2, 100 mM HEPES pH 7.5, 70 °C, apparent Km. An excerpt: (§1) (6-phosphogluconate dehydrogenase from Thermotoga maritima)
On to B1, for which the Km is recorded as 4.3 ± 0.4 mM, the kcat is 23.3 ± 2 s⁻¹ and the kcat/Km stood at 5400 M⁻¹ s⁻¹.

Consider B2, for which the Km is 2.5 ± 0.2 mM, the kcat is 47.9 ± 2.2 s⁻¹ and the kcat/Km worked out at 19200 M⁻¹ s⁻¹.

As to B3, the Km was determined as 3.9 ± 0.4 mM, the kcat came to 32.2 ± 2.2 s⁻¹ and the kcat/Km was found to be 8300 M⁻¹ s⁻¹.

Regarding B4, the Km is 7.5 ± 0.8 mM, the kcat stood at 25.4 ± 1.4 s⁻¹ and the kcat/Km was 3400 M⁻¹ s⁻¹.

Take B5: the Km was found to be 4.0 ± 0.1 mM, the kcat came out at 29.3 ± 1.2 s⁻¹ and the specificity constant (kcat/Km) was determined as 7300 M⁻¹ s⁻¹.

Substrate in a further data set: NC(=O)c1ccc[n+]([C@@H]2O[C@H](COP(=O)(O)OP(=O)(O)OC[C@H]3O[C@@H](n4cnc5c(N)ncnc54)[C@H](OP(=O)(O)O)[C@@H]3O)[C@@H](O)[C@H]2O)c1
Nature of the data set: purified protein. It is filed as biochemical, Thermotoga maritima. The note with it: 2 mM 6-phosphogluconate, 5 mM MgCl2, 0.5 mM MnCl2, 100 mM HEPES pH 7.5, 70 °C, apparent Km.
From the text: as §1
Consider B1, for which the Km is recorded as 0.005 ± 0.0004 mM, the kcat was found to be 17.6 ± 0.7 s⁻¹ and the kcat/Km was found to be 3.52e+06 M⁻¹ s⁻¹.

Take B2: the Km came out at 79 ± 20 mM, the kcat amounted to 15.9 ± 7.9 s⁻¹ and the specificity constant (kcat/Km) worked out at 200 M⁻¹ s⁻¹.

As for B3, the Km is recorded as 70 ± 17 mM, the kcat was found to be 15.9 ± 5.8 s⁻¹ and the kcat/Km amounted to 200 M⁻¹ s⁻¹.

In the case of B5, the Km is listed as 2.3 ± 0.1 mM, the kcat was found to be 16.7 ± 1 s⁻¹ and the kcat/Km worked out at 7300 M⁻¹ s⁻¹.

A further data set addresses T1, Tm6PGDH (6-phosphogluconate dehydrogenase from Thermotoga maritima) (Thermotoga maritima, UniProt Q9WYR9, N32D/R33L/T34S).
T1 construct: gene TM_0438; full length in pET20b, C-terminal His tag (LEHHHHHH from primer), E. coli BL21(DE3), Ni-NTA; primers encode N-terminus MKSHIGLI and C-terminus NWEEGEIG before the tag
Nature of the data set: NAD(P)H formation at […] nm, Michaelis-Menten fit. The note with it: 2 mM 6-phosphogluconate, 5 mM MgCl2, 0.5 mM MnCl2, 100 mM HEPES pH 7.5, 70 °C; apparent Km; read-out: Km (mM) / NADP^+. It is filed as biochemical.
From the text: as §1
`NC(=O)c1ccc[n+]([C@@H]2O[C@H](COP(=O)(O)OP(=O)(O)OC[C@H]3O[C@@H](n4cnc5c(N)ncnc54)[C@H](OP(=O)(O)O)[C@@H]3O)[C@@H](O)[C@H]2O)c1` [NADP^+]: the Km was over 100 mM.

A word on the kcat: it is the maximal rate divided by the concentration of active sites. A word on the kcat/Km: it is the turnover number divided by the Michaelis constant.
